The text below walks through data of patent US20250129146A1, “COMBINED CANCER THERAPY WITH AN EPITHELIAL CELL ADHESION MOLECULE (EPCAM) INHIBITOR AND A WNT INHIBITOR” (ACADEMIA SINICA, priority 2021, published 2025).

One experiment concerns active β-Catenin. Briefly: Nuclear translocation of β-Catenin (immunofluorescence staining; cell fractionation with western blot). It counts as cell-based, human. Here is the method: Cells (1×10^6) were seeded overnight and further allowed to grow in serum free conditions. Then cells were further treated with 20 μg/mL mEpAb2-6 or hEpAb2-6 or MT201 for 6 h or with 400 ng/mL LGK974 (MedChemExpress) for 9 h or combination as indicated. Samples were fractioned into cytosol and nuclear extracts using nuclear/cytosol fractionation kit (Biovision) according to the manufacturer's protocol. The fractions were then subjected to western blot analysis.
(§1) For western blotting, cells were extracted using radioimmunoprecipitation assay (RIPA) buffer [(0.01 M sodium phosphate, pH 7.2), 150 mM NaCl, 2 mM EDTA, 50 mM NaF, 1% Nonidet P-40, 1% sodium deoxycholate, and 0.1% SDS)] containing phosphatase inhibitor (Roche) and protease inhibitor (Roche) cocktail. Equal amounts of protein were separated by SDS-PAGE and then transferred to PVDF membranes. The membranes were blocked with 3% BSA in TBST (Blocking solution) and incubated with necessary primary antibodies in the blocking solution overnight at 4° C. Membranes were then incubated with HRP-conjugated secondary antibodies in the blocking solution for 1 h at room temperature, and protein expression were detected. Antibodies used: anti-α-tubulin (Sigma), anti-EpCAM (abeam), anti-Active β-Catenin (Millipore), anti-total β-Catenin (abeam), anti-Frizzled 6 (CST), anti-Frizzled 7 (Santa Cruz Biotech), anti-LRP5 (abcam), anti-Phospho-LRP5 (abcam), anti-Phospho-LRP6 (CST), anti-LRP6 (CST) and anti-EpEX antibody EpAb3-5 (Produced in house), anti-ADAM17 (abcam), anti-phopho-ADAM17 (abcam), anti-Presenilin2 (abcam), anti-phospho-Presenilin2 (S327) (abcam), anti-phospho-Presenilin2 (S330) (abcam) and anti-Axin2 (CST).
Glass slides were used in 24-well plates and coated with 0.1% gelatin. Further, 3×10^4 cells were seeded in serum free medium overnight. Cells were treated with 20 μg/mL EpAb2-6 for 6 h, or 400 ng/mL LGK974 (MedChemExpress) for 9 h or the combination. Cells were washed using ice-cold PBS and fixed with 4% paraformaldehyde for 15 min at RT and washed with ice-cold PBS. Further, cells were permeabilized using 0.1% triton-X in PBS for 20 min and subsequently washed with PBS. Cells were blocked with 3% BSA in PBS for 1 h at RT. Next, cells were treated with primary antibody anti-Active β-Catenin (Millipore) overnight. Then, cells were washed and treated with secondary antibody in 3% BSA containing PBS along with DAPI for 1 h at RT. Samples were then washed in PBS five times and mounted for microscopy. Nuclear β-Catenin intensities were calculated using IMARIS (Oxford Instruments) software.
(Immunoblotting shows a protein as a band on a membrane.)

Another experiment has as its system TCF. Briefly: TCF activity (TOP-Flash TCF luciferase reporter). It counts as cell-based, human. Here is the method: Cells were plated at 5×10^3 cells per well and grown overnight in 12-well plates. Then, cells were transiently transfected with TOP-Flash TCF reporter plasmid (Millipore) using poly-jet transfection reagent (SignaGen). At 48 h post transfection, cells were treated with 20 µg/mL Anti-EpCAM EpAb2-6 (Produced in house) or MT201 (Produced in house) for 6 h or 400 ng/mL LGK974 (MedChemExpress) for 9 h or the combination, as indicated. In addition, cells were treated with EpEX (Produced in house by Expi293 Expression System) or recombinant Wnt3A (R & D systems) or the combination for 8 h. Finally, cells were lysed, and the luciferase assay was performed.
(§2) The cells were seeded in 24-well plates (1×10^4 cells/well) and incubated at 37° C. for 24 h. The culture media were refreshed, and the cells were transfected with respective reporter plasmids (TCF reporter or Wnt receptor promoter reporter) by PolyJET (SignaGen). The transfected efficiency was normalized by co-transfected with pRL-TK (20 ng) as an internal control. Additional treatments were conducted as indicated. Firefly luciferase and Renilla luminescence were measured 48 h post-transfection using the Dual-Glo Luciferase Assay System (Promega), according to the manufacturer's recommendations.
(In general: A reporter such as luciferase makes a cellular process visible.)

In experiment [1] the test system is Wnt receptors (FZD6/7, LRP5/6). Briefly: Wnt receptor protein and mRNA expression (western blot, qPCR). It counts as cell-based, human. The settings on record: HT29 and HCT116 cells; overnight DAPT treatment. As to the method: as §1
Total RNA was extracted using TRI reagent and 5 μg of the total RNA was further reverse-transcribed using oligo (dT) primer with reverse transcriptase. Quantitative real time RT-PCR (qPCR) was performed on cDNA using the Light Cycler 480 SYBR Green-I Master kit and the LightCycler480 System. The gene expression levels of each sample were normalized to the expression levels of glyceraldehyde 3-phosphate dehydrogenase (GAPDH) or β-actin.

The test system of experiment [2] is Wnt receptor promoters (LRP5, LRP6, FZD6, FZD7). The experiment is described as follows: Wnt receptor promoter luciferase reporter assay. It counts as cell-based, human. The following applies: cells transfected with EpCAM plasmid; overnight DAPT treatment. Here is the method: as §2
The putative promoter regions of LRP5 (−1187 to +200), LRP6 (−1543 to +55), FZD6 (−1385 to +205) and FZD7 (−1285 to +116) were cloned from HeLa genomic DNA and fused to pGL4.18 plasmid (Promega, USA). The genomic DNA was extracted using a Genomic DNA Isolation Kit (NovelGene, TW) according to the manufacturer's recommendations.

Experiment [3] concerns colon cancer cells (SW620, HCT116). The following applies: general description of other anti-EpCAM antibodies; cited from earlier work.
The target in another experiment is T1, EpCAM (Homo sapiens, UniProt P16422).
T1 construct: HEK293T cells were transfected with full length or EGF like-domain deletion mutant EpCAM-V5; V5; expressed in transfected cells; host or cells: HEK293T
T1 sequence (P16422 24-314): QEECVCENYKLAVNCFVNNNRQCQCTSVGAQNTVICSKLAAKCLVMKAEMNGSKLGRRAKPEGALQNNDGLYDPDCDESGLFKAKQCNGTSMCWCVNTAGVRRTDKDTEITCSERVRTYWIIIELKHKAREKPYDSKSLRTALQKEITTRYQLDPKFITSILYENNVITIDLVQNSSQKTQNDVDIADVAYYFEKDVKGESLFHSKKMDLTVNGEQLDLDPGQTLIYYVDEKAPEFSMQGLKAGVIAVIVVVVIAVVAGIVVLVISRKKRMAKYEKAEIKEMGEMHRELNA
The settings on record: general description of other anti-EpCAM antibodies; cited from earlier work.

Experiment [4] has as its system HCT116, HT29 and SW620 cells. Briefly: Tumorsphere assay. The following applies: summary statement; CRC cells; tumorsphere and colony formation. It counts as cell-based, human. As to the method: Cells were seeded in ultra-low adherent 6-well plates (5×10^4 cells per well) or 24-well plates (1×10^3 cells per well) and maintained in DMEM/F-12 supplemented with B27. Further, cells were treated with 20 μg/mL mEpAb2-6, hEpAb2-6 or MT201 (Produced in house), or 400 ng/mL LGK974 (MedChemExpress) or the combination, by direct addition to the culture medium. The entire culture medium, including the treatment component, was changed in every other day. Cells were cultured for 10 days, and on 10th day, spheres were counted and photographed under the microscope.

Experiment [5] relates to colon cancer cells (SW620, HCT116). The experiment is described as follows: Annexin-V/PI apoptosis assay. The settings on record: HCT116 cells; 20 μg/mL hEpAb2-6, mEpAb2-6 or MT201 for 24 hrs. It counts as cell-based, human. Here is the method: Cells were seeded in 24-well plate ([…] cells per well) overnight and then treated with 20 μg/mL mEpAb2-6, hEpAb2-6 or MT201, or […] LGK974 (MedChemExpress) or the combination for 24 hrs. Cell pellets were collected, and an apoptosis assay was performed using an Annexin-V/PI apoptosis kit (BD Biosciences). Results were read by flow cytometry analysis percentage apoptotic cells was calculated.

Setting [6] is: wild-type HCT116 cells, DAPT with or without EpEX.

“Also recorded” adds a separate entry of the source.

For the molecule `C[C@H](NC(=O)Cc1cc(F)cc(F)c1)C(=O)N[C@H](C(=O)OC(C)(C)C)c1ccccc1` [DAPT, reference compound], the “nuclear translocation of β-Catenin” value in the experiment on active β-Catenin (setting [6]) is “decreased nuclear translocation of β-Catenin”. For the same molecule, in the experiment on TCF (setting [6]), the TCF activity entry is given as “marginally decreased TCF activity”. In experiment [1], the “expression of Wnt receptors” value was “reduced expression of Wnt receptors”. The “Wnt receptor promoter activity” value in experiment [2] is “almost completely blocked the effect”.

B1: edrecolomab: other anti-EpCAM antibody targeting only the EGF I domain (antibody, chains of the INN, looked up, V domains shown)
VH: QVQLQQSGAELVRPGTSVKVSCKASGYAFTNYLIEWVKQRPGQGLEWIGVINPGSGGTNYNEKFKGKATLTADKSSSTAYMQLSSLTSDDSAVYFCARDGPWFAYWGQGTLVTVSA
VL: NIVMTQSPKSMSMSVGERVTLTCKASENVVTYVSWYQQKPEQSPKLLIYGASNRYTGVPDRFTGSGSATDFTLTISSVQAEDLADYHCGQGYSYPYTFGGGTKLEIK
In the case of B1, in experiment [3], the “inducing apoptosis of cancer cells” value is given as “failing”. The EpCAM domains bound entry in the experiment with EpCAM is “target only the well-described EGF I domain of EpCAM; also recorded: binding to domain I only”.

B2: hEpAb2-6: humanized form of EpAb2-6 (antibody, V domains shown)
VH: VKLQESGPELKKPGETVKISCKASGYTFTDYSMHWVKQAPGKGLKWMGWINTETGEPTYADDFKGRFAFSLETSASTAYLQINNLKNEDTATYFCARTAVYWGQGTTVTVSS
VL: DIQMTQSPSSLSASLGERVSLTCRASQEISVSLSWLQQEPDGTIKRLIYATSTLDSGVPKRFSGSRSGSDYSLTISSLESEDFVDYYCLQYASYPWTFGGGTKLEIKRADAAPTVS
On to B2, for which, in the experiment on active β-Catenin (HT29 cells, 20 μg/mL hEpAb2-6 or MT201 for 6 h), the “nuclear translocation of β-Catenin” value is “retained β-Catenin inhibitory activity; also recorded: attenuates nuclear translocation of β-Catenin”. Further, the TCF activity result in the experiment with TCF (HT29 cells, 20 µg/mL antibody for 6 h) is recorded as “retained β-Catenin inhibitory activity thus related TCF activity”. For the same molecule, the cancer stemness properties result in experiment [4] was “limits cancer stemness”. Besides, the induction of apoptosis result in experiment [5] is reported as “induces apoptosis”.
